From publication PMC10817852, “Vascular injury activates the ELK1/SND1/SRF pathway to promote vascular smooth muscle cell proliferative phenotype and neointimal hyperplasia”

Key:
SND1 (1-660) = biological target: T1, SND1 (1-660) (UniProt Q78PY7 1-660); assay: EMSA; SND1 alone; Beyotime GS009 chemiluminescent EMSA kit binding buffer (composition, salt and pH not given), 20 fmol biotin probe, 0.1 ug protein, 10 min at room temperature; conditions: protein: recombinant; label: biotin; blunt
T1 sequence: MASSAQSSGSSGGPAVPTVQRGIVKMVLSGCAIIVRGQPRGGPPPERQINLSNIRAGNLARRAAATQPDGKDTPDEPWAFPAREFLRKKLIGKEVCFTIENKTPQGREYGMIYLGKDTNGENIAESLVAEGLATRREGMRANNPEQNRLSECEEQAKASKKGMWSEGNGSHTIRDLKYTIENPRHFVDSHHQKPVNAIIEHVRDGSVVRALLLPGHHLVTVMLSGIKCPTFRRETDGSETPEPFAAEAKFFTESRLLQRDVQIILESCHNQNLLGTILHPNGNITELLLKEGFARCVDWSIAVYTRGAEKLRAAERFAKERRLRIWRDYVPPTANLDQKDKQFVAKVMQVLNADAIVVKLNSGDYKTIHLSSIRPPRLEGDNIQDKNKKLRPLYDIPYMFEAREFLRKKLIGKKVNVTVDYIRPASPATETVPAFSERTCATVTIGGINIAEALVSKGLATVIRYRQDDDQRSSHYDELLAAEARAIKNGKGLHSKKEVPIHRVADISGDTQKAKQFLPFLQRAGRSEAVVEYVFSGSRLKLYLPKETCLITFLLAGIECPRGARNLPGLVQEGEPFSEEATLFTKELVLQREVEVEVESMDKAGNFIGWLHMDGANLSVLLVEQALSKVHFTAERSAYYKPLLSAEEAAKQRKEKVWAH

SRF (1-266) = biological target: T2, SRF (1-266) (UniProt P11831 1-266); assay: EMSA; unlabeled probe (200-fold) diminished binding; Beyotime GS009 chemiluminescent EMSA kit binding buffer (composition, salt and pH not given), 20 fmol biotin probe, 0.1 ug protein, 10 min at room temperature; conditions: protein: recombinant; (GST fusions described); chain copies: 2; label: biotin; blunt
T2 sequence: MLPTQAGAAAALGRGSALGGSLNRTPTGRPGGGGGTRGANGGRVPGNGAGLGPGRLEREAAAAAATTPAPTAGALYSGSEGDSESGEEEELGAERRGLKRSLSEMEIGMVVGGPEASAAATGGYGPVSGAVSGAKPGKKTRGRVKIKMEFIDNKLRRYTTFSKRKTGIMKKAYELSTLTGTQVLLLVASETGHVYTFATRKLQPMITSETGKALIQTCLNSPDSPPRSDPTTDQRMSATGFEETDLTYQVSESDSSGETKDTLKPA

B1: Fos CArG probe (dsDNA)
DNA 1: CCATATTAGGCCATATTAGGCCATATTAGGCCATATTAGGCCATATTAGG
DNA 2: CCTAATATGGCCTAATATGGCCTAATATGGCCTAATATGGCCTAATATGG
B1: no binding (SND1 (1-660)); binds (SRF (1-266)).
